Assay [1] concerns the target T1, SARS-CoV-2 Wuhan-Hu-1 spike receptor-binding domain (RBD) (SARS-CoV-2 Wuhan-Hu-1, UniProt P0DTC2). In words: crystal structure.
Assay [2] has as its target T1, SARS-CoV-2 Wuhan-Hu-1 spike …. In words: BLI.
Assay [3] has the same target. In words: ELISA.

B1: Fab fragment from NCV2SG48 (Fab, V domains shown)
VH: EVQLVESGGGLIQPGGSLRLSCAASGFIVSRNYMNWVRQAPGKGLEWVALIYSGGSTFYADSVKGRFTISRDNSKNTLYLQMNSLRAEDTAVYYCARDLVVYGLDYWGQGTLVTVSS
VL: AIQLTQSPSSLSASVGDRVTITCRASQGISSHLAWYQQKPGKAPKLLIFAASTLQSGVPSRFSGSGSGTDFTLTISSLQPEDFATYYCQHLNSNPPITFGQGTRLEIK
Consider B1, for which the binding result in assay [1] is on record as “binds”.

B2: NCV2SG48 monoclonal antibody (human IgG) (antibody, V domains shown)
VH: B1 VH
VL: B1 VL
Turning to B2, in assay [2], the binding result is “binds”.

B3: NCV2SG53 monoclonal antibody (human IgG) (antibody, V domains shown)
VH: QVQMVESGGGLVRPGGSLRLSCAASGFTFSDYYMSWIRQAPGKGLEWISYISSSGSSMNYADSVKGRFTISRDNAKNSLFLQMNSLRAEDTAVYYCAREFDLTKIIMVPPYWGQGTLVTVSS
VL: AIQLTQSPSSLSASVGDRVTITCRASQGISSYLAWYQQKPGKAPKVLIYAASTLQSGVPSRFSGSGSGTDFTLTISSLQPEDFATYYCQQLKSYPLTFGGGTKVEIT
For B3, the binding result in assay [3] is on record as “binds”.

B4: Fab fragment of NCV2SG53 (Fab, V domains shown)
VH: B3 VH
VL: B3 VL
Consider B4, for which the binding result in assay [1] is on record as “binds”.

Values taken from doi:10.1101/2022.01.26.477937 (bioRxiv, 2022).
